Starred links: 1 amine or outer side, 2 acyl side, 3 side chain; linkers in the order of their positions; H or OH if unused. Non-standard residues stand in square brackets, D forms with d. Groups on a side chain read outwards from the residue. Primed or numbered codes have the meaning given here. No end group written: not given here. *: point of attachment. γGlu = O=C(O)[C@H](CCC(=O)[*:2])N[*:1]; Stearoyl = CCCCCCCCCCCCCCCCCC(=O)*; αMeF = C[C@](N)(Cc1ccccc1)C(=O)O; αMeK = C[C@](N)(CCCCN)C(=O)O; αMeS = C[C@](N)(CO)C(=O)O; PEG2′ = not defined here; Aib = CC(C)(N)C(=O)O; Ahx = NCCCCCC(=O)O
T1: glucose-dependent insulinotropic peptide (gastric inhibitory polypeptide) receptor (GIPR) (human, UniProt P48546 22-466)
T1 sequence (looked up): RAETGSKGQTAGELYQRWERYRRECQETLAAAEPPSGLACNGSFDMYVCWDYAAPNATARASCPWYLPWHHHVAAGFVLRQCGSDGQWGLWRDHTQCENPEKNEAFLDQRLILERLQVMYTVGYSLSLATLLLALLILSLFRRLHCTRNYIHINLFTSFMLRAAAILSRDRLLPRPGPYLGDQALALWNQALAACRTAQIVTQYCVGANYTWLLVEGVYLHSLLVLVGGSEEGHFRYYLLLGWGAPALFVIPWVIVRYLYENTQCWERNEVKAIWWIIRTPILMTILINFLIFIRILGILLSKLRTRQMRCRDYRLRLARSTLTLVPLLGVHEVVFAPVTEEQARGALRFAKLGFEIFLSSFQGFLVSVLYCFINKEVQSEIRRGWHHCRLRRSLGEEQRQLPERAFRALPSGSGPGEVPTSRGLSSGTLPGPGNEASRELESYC

B1: SEQ ID NO 146 (peptide)
peptide: H[Aib]EGS[αMeF]TSDV[αMeS]S[αMeF]LEGEAAK([γGlu-Stearoyl])E[αMeF]IA[αMeF]VV[αMeK]GG-NH2
modifications: N-terminus assumed
SMILES: CCCCCCCCCCCCCCCCCC(=O)N[C@@H](CCC(=O)NCCCC[C@H](NC(=O)[C@H](C)NC(=O)[C@H](C)NC(=O)[C@H](CCC(=O)O)NC(=O)CNC(=O)[C@H](CCC(=O)O)NC(=O)[C@H](CC(C)C)NC(=O)[C@](C)(Cc1ccccc1)NC(=O)[C@H](CO)NC(=O)[C@](C)(CO)NC(=O)[C@@H](NC(=O)[C@H](CC(=O)O)NC(=O)[C@H](CO)NC(=O)[C@@H](NC(=O)[C@](C)(Cc1ccccc1)NC(=O)[C@H](CO)NC(=O)CNC(=O)[C@H](CCC(=O)O)NC(=O)C(C)(C)NC(=O)[C@@H](N)Cc1c[nH]cn1)[C@@H](C)O)C(C)C)C(=O)N[C@@H](CCC(=O)O)C(=O)N[C@@](C)(Cc1ccccc1)C(=O)N[C@H](C(=O)N[C@@H](C)C(=O)N[C@@](C)(Cc1ccccc1)C(=O)N[C@H](C(=O)N[C@H](C(=O)N[C@@](C)(CCCCN)C(=O)NCC(=O)NCC(N)=O)C(C)C)C(C)C)[C@@H](C)CC)C(=O)O
B2: SEQ ID NO 147 (peptide)
peptide: H[Aib]EGS[αMeF]TSDV[αMeS]S[αMeF]LEGEAAK([γGlu-γGlu-Stearoyl])E[αMeF]IA[αMeF]VV[αMeK]GG-NH2
modifications: N-terminus assumed
SMILES: CCCCCCCCCCCCCCCCCC(=O)N[C@@H](CCC(=O)N[C@@H](CCC(=O)NCCCC[C@H](NC(=O)[C@H](C)NC(=O)[C@H](C)NC(=O)[C@H](CCC(=O)O)NC(=O)CNC(=O)[C@H](CCC(=O)O)NC(=O)[C@H](CC(C)C)NC(=O)[C@](C)(Cc1ccccc1)NC(=O)[C@H](CO)NC(=O)[C@](C)(CO)NC(=O)[C@@H](NC(=O)[C@H](CC(=O)O)NC(=O)[C@H](CO)NC(=O)[C@@H](NC(=O)[C@](C)(Cc1ccccc1)NC(=O)[C@H](CO)NC(=O)CNC(=O)[C@H](CCC(=O)O)NC(=O)C(C)(C)NC(=O)[C@@H](N)Cc1c[nH]cn1)[C@@H](C)O)C(C)C)C(=O)N[C@@H](CCC(=O)O)C(=O)N[C@@](C)(Cc1ccccc1)C(=O)N[C@H](C(=O)N[C@@H](C)C(=O)N[C@@](C)(Cc1ccccc1)C(=O)N[C@H](C(=O)N[C@H](C(=O)N[C@@](C)(CCCCN)C(=O)NCC(=O)NCC(N)=O)C(C)C)C(C)C)[C@@H](C)CC)C(=O)O)C(=O)O
B3: SEQ ID NO 148 (peptide)
peptide: H[Aib]EGS[αMeF]TSDV[αMeS]S[αMeF]LEGEAAK([γGlu-γGlu-γGlu-Stearoyl])E[αMeF]IA[αMeF]VV[αMeK]GG-NH2
modifications: N-terminus assumed
SMILES: CCCCCCCCCCCCCCCCCC(=O)N[C@@H](CCC(=O)N[C@@H](CCC(=O)N[C@@H](CCC(=O)NCCCC[C@H](NC(=O)[C@H](C)NC(=O)[C@H](C)NC(=O)[C@H](CCC(=O)O)NC(=O)CNC(=O)[C@H](CCC(=O)O)NC(=O)[C@H](CC(C)C)NC(=O)[C@](C)(Cc1ccccc1)NC(=O)[C@H](CO)NC(=O)[C@](C)(CO)NC(=O)[C@@H](NC(=O)[C@H](CC(=O)O)NC(=O)[C@H](CO)NC(=O)[C@@H](NC(=O)[C@](C)(Cc1ccccc1)NC(=O)[C@H](CO)NC(=O)CNC(=O)[C@H](CCC(=O)O)NC(=O)C(C)(C)NC(=O)[C@@H](N)Cc1c[nH]cn1)[C@@H](C)O)C(C)C)C(=O)N[C@@H](CCC(=O)O)C(=O)N[C@@](C)(Cc1ccccc1)C(=O)N[C@H](C(=O)N[C@@H](C)C(=O)N[C@@](C)(Cc1ccccc1)C(=O)N[C@H](C(=O)N[C@H](C(=O)N[C@@](C)(CCCCN)C(=O)NCC(=O)NCC(N)=O)C(C)C)C(C)C)[C@@H](C)CC)C(=O)O)C(=O)O)C(=O)O
B4: SEQ ID NO 149 (peptide)
peptide: H[Aib]EGS[αMeF]TSDV[αMeS]S[αMeF]LEGEAAK([Ahx-Stearoyl])E[αMeF]IA[αMeF]VV[αMeK]GG-NH2
modifications: N-terminus assumed
SMILES: CCCCCCCCCCCCCCCCCC(=O)NCCCCCC(=O)NCCCC[C@H](NC(=O)[C@H](C)NC(=O)[C@H](C)NC(=O)[C@H](CCC(=O)O)NC(=O)CNC(=O)[C@H](CCC(=O)O)NC(=O)[C@H](CC(C)C)NC(=O)[C@](C)(Cc1ccccc1)NC(=O)[C@H](CO)NC(=O)[C@](C)(CO)NC(=O)[C@@H](NC(=O)[C@H](CC(=O)O)NC(=O)[C@H](CO)NC(=O)[C@@H](NC(=O)[C@](C)(Cc1ccccc1)NC(=O)[C@H](CO)NC(=O)CNC(=O)[C@H](CCC(=O)O)NC(=O)C(C)(C)NC(=O)[C@@H](N)Cc1c[nH]cn1)[C@@H](C)O)C(C)C)C(=O)N[C@@H](CCC(=O)O)C(=O)N[C@@](C)(Cc1ccccc1)C(=O)N[C@H](C(=O)N[C@@H](C)C(=O)N[C@@](C)(Cc1ccccc1)C(=O)N[C@H](C(=O)N[C@H](C(=O)N[C@@](C)(CCCCN)C(=O)NCC(=O)NCC(N)=O)C(C)C)C(C)C)[C@@H](C)CC
B5: SEQ ID NO 150 (peptide)
peptide: H[Aib]EGS[αMeF]TSDV[αMeS]S[αMeF]LEGEAAK([Ahx-Ahx-Stearoyl])E[αMeF]IA[αMeF]VV[αMeK]GG-NH2
modifications: N-terminus assumed
SMILES: CCCCCCCCCCCCCCCCCC(=O)NCCCCCC(=O)NCCCCCC(=O)NCCCC[C@H](NC(=O)[C@H](C)NC(=O)[C@H](C)NC(=O)[C@H](CCC(=O)O)NC(=O)CNC(=O)[C@H](CCC(=O)O)NC(=O)[C@H](CC(C)C)NC(=O)[C@](C)(Cc1ccccc1)NC(=O)[C@H](CO)NC(=O)[C@](C)(CO)NC(=O)[C@@H](NC(=O)[C@H](CC(=O)O)NC(=O)[C@H](CO)NC(=O)[C@@H](NC(=O)[C@](C)(Cc1ccccc1)NC(=O)[C@H](CO)NC(=O)CNC(=O)[C@H](CCC(=O)O)NC(=O)C(C)(C)NC(=O)[C@@H](N)Cc1c[nH]cn1)[C@@H](C)O)C(C)C)C(=O)N[C@@H](CCC(=O)O)C(=O)N[C@@](C)(Cc1ccccc1)C(=O)N[C@H](C(=O)N[C@@H](C)C(=O)N[C@@](C)(Cc1ccccc1)C(=O)N[C@H](C(=O)N[C@H](C(=O)N[C@@](C)(CCCCN)C(=O)NCC(=O)NCC(N)=O)C(C)C)C(C)C)[C@@H](C)CC
B6: SEQ ID NO 151 (peptide)
peptide: H[Aib]EGS[αMeF]TSDV[αMeS]S[αMeF]LEGEAAK([Ahx-Ahx-Ahx-Stearoyl])E[αMeF]IA[αMeF]VV[αMeK]GG-NH2
modifications: N-terminus assumed
SMILES: CCCCCCCCCCCCCCCCCC(=O)NCCCCCC(=O)NCCCCCC(=O)NCCCCCC(=O)NCCCC[C@H](NC(=O)[C@H](C)NC(=O)[C@H](C)NC(=O)[C@H](CCC(=O)O)NC(=O)CNC(=O)[C@H](CCC(=O)O)NC(=O)[C@H](CC(C)C)NC(=O)[C@](C)(Cc1ccccc1)NC(=O)[C@H](CO)NC(=O)[C@](C)(CO)NC(=O)[C@@H](NC(=O)[C@H](CC(=O)O)NC(=O)[C@H](CO)NC(=O)[C@@H](NC(=O)[C@](C)(Cc1ccccc1)NC(=O)[C@H](CO)NC(=O)CNC(=O)[C@H](CCC(=O)O)NC(=O)C(C)(C)NC(=O)[C@@H](N)Cc1c[nH]cn1)[C@@H](C)O)C(C)C)C(=O)N[C@@H](CCC(=O)O)C(=O)N[C@@](C)(Cc1ccccc1)C(=O)N[C@H](C(=O)N[C@@H](C)C(=O)N[C@@](C)(Cc1ccccc1)C(=O)N[C@H](C(=O)N[C@H](C(=O)N[C@@](C)(CCCCN)C(=O)NCC(=O)NCC(N)=O)C(C)C)C(C)C)[C@@H](C)CC

Each binder was assayed against glucagon receptor (GCGR) (human, UniProt P47871 26-477) (assay: cell-based or functional assay).
Chain of glucagon receptor (GCGR) (P47871 26-477): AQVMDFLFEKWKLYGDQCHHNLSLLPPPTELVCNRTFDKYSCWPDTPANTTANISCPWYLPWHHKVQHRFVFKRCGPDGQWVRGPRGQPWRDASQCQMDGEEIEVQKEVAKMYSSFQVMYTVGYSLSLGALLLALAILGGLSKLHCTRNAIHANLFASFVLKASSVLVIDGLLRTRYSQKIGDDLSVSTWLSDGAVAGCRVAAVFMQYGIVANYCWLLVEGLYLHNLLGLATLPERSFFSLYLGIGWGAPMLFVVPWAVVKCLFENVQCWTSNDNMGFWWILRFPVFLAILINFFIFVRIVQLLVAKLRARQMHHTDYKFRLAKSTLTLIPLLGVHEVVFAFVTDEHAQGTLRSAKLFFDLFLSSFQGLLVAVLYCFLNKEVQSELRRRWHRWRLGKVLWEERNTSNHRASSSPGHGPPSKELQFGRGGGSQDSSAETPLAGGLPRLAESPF

Row | Binder | cAMP Primary assay EC50 Gluc-R [nM] | cAMP Primary assay EC50 Gluc-R (2nd) [nM]
1 | B1 | 28 | 28
2 | B2 | 27 | 27
3 | B3 | 26 | 26
4 | B4 | 28 | 28
5 | B5 | 27 | 27
6 | B6 | 26 | 26
7 | H[Aib]EGS[αMeF]TSDV[αMeS]S[αMeF]LEGEAAK([PEG2′-Stearoyl])E[αMeF]IA[αMeF]VV[αMeK]GG-NH2 [SEQ ID NO 152] | 28 | 28

What follows are binders tested against T1, glucose-dependent insulinotropic … (assay: cell-based or functional assay).

Row | Binder | cAMP Primary assay EC50 GIP-R [nM] | cAMP Primary assay EC50 GIP-R (2nd) [nM]
8 | B1 | 28 | 28
9 | B2 | 27 | 27
10 | B3 | 26 | 26
11 | B4 | 28 | 28
12 | B5 | 27 | 27
13 | B6 | 26 | 26
14 | H[Aib]EGS[αMeF]TSDV[αMeS]S[αMeF]LEGEAAK([PEG2′-Stearoyl])E[αMeF]IA[αMeF]VV[αMeK]GG-NH2 [SEQ ID NO 152] | 28 | 28

The binders below were run against GLP-1 receptor (GLP-1R) (human, UniProt P43220 24-463) (assay: cell-based or functional assay).

Row | Binder | cAMP Mean pM GLP-1R [pM] | cAMP Primary assay EC50 GLP-1R n1 [nM] | cAMP Primary assay EC50 GLP-1R n2 [nM]
15 | B1 | 69 | 0.096 | 0.042
16 | B2 | 23.2 | 0.032 | 0.014
17 | B3 | 12.1 | 0.016 | 0.0087
18 | B4 | 66.2 | 0.081 | 0.051
19 | B5 | 25.4 | 0.028 | 0.022
20 | B6 | 18.2 | 0.022 | 0.015
21 | H[Aib]EGS[αMeF]TSDV[αMeS]S[αMeF]LEGEAAK([PEG2′-Stearoyl])E[αMeF]IA[αMeF]VV[αMeK]GG-NH2 [SEQ ID NO 152] | 34.7 | 0.039 | 0.031
